From paper PMC4113749 (Toxins, 2014)

Molecular target: TcdA^(1–542 D285/287N)-EGFP (Clostridium difficile (strain VPI 10463), UniProt P16154 1-542)
Assay: MST
Conditions: both partners purified

B1: isolated TcdA CROPs (TcdA^1875–2710) (domain or fragment)
chain: YKIINGKHFYFNNDGVMQLGVFKGPDGFEYFAPANTQNNNIEGQAIVYQSKFLTLNGKKYYFDNNSKAVTGWRIINNEKYYFNPNNAIAAVGLQVIDNNKYYFNPDTAIISKGWQTVNGSRYYFDTDTAIAFNGYKTIDGKHFYFDSDCVVKIGVFSTSNGFEYFAPANTYNNNIEGQAIVYQSKFLTLNGKKYYFDNNSKAVTGLQTIDSKKYYFNTNTAEAATGWQTIDGKKYYFNTNTAEAATGWQTIDGKKYYFNTNTAIASTGYTIINGKHFYFNTDGIMQIGVFKGPNGFEYFAPANTDANNIEGQAILYQNEFLTLNGKKYYFGSDSKAVTGWRIINNKKYYFNPNNAIAAIHLCTINNDKYYFSYDGILQNGYITIERNNFYFDANNESKMVTGVFKGPNGFEYFAPANTHNNNIEGQAIVYQNKFLTLNGKKYYFDNDSKAVTGWQTIDGKKYYFNLNTAEAATGWQTIDGKKYYFNLNTAEAATGWQTIDGKKYYFNTNTFIASTGYTSINGKHFYFNTDGIMQIGVFKGPNGFEYFAPANTDANNIEGQAILYQNKFLTLNGKKYYFGSDSKAVTGLRTIDGKKYYFNTNTAVAVTGWQTINGKKYYFNTNTSIASTGYTIISGKHFYFNTDGIMQIGVFKGPDGFEYFAPANTDANNIEGQAIRYQNRFLYLHDNIYYFGNNSKAATGWVTIDGNRYYFEPNTAMGANGYKTIDNKNFYFRNGLPQIGVFKGSNGFEYFAPANTDANNIEGQAIRYQNRFLHLLGKIYYFGNNSKAVTGWQTINGKVYYFMPDTAMAAAGGLFEIDGVIYFFGVDGVKAPGIYG
- Kd: 2.96 ± 0.18 µM
